How the values were obtained:
[1] = tested on: human monocyte-derived osteoclasts; assay: Osteoclast fusion assay (number of fusion events, fluorescence microscopy); assay type: cell-based; conditions: recombinant protein ~40 nM added end of day 2 post-RANKL, overnight
In short: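 Human donor monocytes differentiated 6 days with 100 ng/ml M-CSF, then 3 days with 100 ng/ml M-CSF plus 100 ng/ml RANKL. Fixed cells were stained with phalloidin and Hoechst; 16 random fields imaged at 10×, with fusion scored as the number of cell-to-cell fusion events.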

[2] = biological target: T1, Anx A5 on PS containing liposomes (Homo sapiens, UniProt P08758); assay: Liposome binding assay
T1 sequence (P08758 1-320): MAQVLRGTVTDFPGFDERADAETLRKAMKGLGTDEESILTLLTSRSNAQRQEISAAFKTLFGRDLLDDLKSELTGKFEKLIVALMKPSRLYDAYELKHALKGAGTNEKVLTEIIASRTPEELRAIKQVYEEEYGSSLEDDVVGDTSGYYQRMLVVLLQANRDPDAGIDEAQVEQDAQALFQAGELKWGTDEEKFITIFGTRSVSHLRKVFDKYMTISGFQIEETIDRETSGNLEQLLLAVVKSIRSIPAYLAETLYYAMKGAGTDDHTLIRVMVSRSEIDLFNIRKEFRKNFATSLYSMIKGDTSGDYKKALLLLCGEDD
Source text: Anx A5 binds to PS containing membranes in a Ca^2+-dependent manner. Recombinant La was introduced alone or along with recombinant Anx A5 to PS containing liposomes and pelleted liposomes by centrifugation to evaluate whether La was enriched with liposomes or in supernatant (FIG. 12C).
Liposome binding assay: Multilamellar liposomes were formed from pure PC or 9:1 (w/w) mixture of PC and PS. Both lipid compositions were supplemented with 0.5 mol % of lissamine rhodamine phosphatidylethanolamine. To prepare liposomes, lipid stock in benzene/methanol (95:5) was frozen in liquid nitrogen and freeze-dried overnight using SPEEDVAC™ (Savant). Dried lipid was resuspended in aqueous buffer (100 mM NaCl, 10 mM Hepes, pH 7.0) at 1 mM total lipid concentration and vortexed. Proteins and CaCl2 were added to the liposomes and the mixtures were incubated on ice for 30 minutes. To pellet, liposomes were centrifugated at 15,000 g for 20 minutes to pellet, based on rhodamine fluorescence ˜95% of liposomes. Centrifugated samples were then fractionated into a top, liposome-depleted fraction and a bottom fraction containing liposomes and liposome-bound proteins. Fractions were then solubilized via addition of Laemmli buffer (Bio Rad) and separated via SDS-PAGE, as described above. Recombinant La and recombinant Anx A5 were detected via their n-terminal 6×His tag via α-6×His antibody (Abcam) and signals for soluble vs liposome bound protein fractions were evaluated via densitometry. Data were presented as a percentage of protein signal bound to liposomes where: […]

human osteoclasts = assay: Synchronized osteoclast membrane fusion after LPC removal; assay type: cell-based; conditions: recombinant La applied to LPC-synchronized osteoclasts
Experimental: It was then assessed whether La at the surface of human osteoclasts functions at the cell fusion stage of osteoclastogensis. All cell-cell fusion events in development and tissue maintenance proceed through slow (days), asynchronous differentiation processes that prepare fusion competent cells (Brukman et al., J Cell Biol 218, 1436-1451, doi:10.1083/jcb.201901017 (2019)). Then, PM fusion occurs by the rapid (minutes) progression from the initial formation of hemifusion connections to fusion pores that unite the volumes of two cells (FIG. 3D, top). These steps were decoupled in the formation of multinucleated syncytia using the hemifusion inhibitor lysophosphatidylcholine (LPC) (Verma et al., J Biol Chem 293, 254-270, doi:10.1074/jbc.M117.809681 (2018)). LPC's inverted cone shape is not conducive to the concave geometry of the hemifusion stalk, so ready-to-fuse cells are trapped upstream of hemifusion. After removing LPC, cells undergo synchronized fusion relatively rapidly (within 90 mins), affording the ability to assess the function of proteins specifically in the membrane fusion stage of osteoclast formation decoupled from upstream differentiation processes (FIG. 3D, bottom). Ready-to-fuse, RANKL committed cells were accumulated in the presence of LPC, and then this hemifusion blockade was lifted by washing out LPC. […]

[3] = tested on: HA0-expressing 3T3 fibroblasts and red blood cells; assay: HA0-RBC fusion assay; assay type: cell-based, mouse, human

B1: recombinant La: recombinant La, species not specified at the place; 40 nM FL La in HA0-RBC assay (protein, UniProt P05455 1-408, looked up)
Lupus La protein: MAENGDNEKMAALEAKICHQIEYYFGDFNLPRDKFLKEQIKLDEGWVPLEIMIKFNRLNRLTTDFNVIVEALSKSKAELMEISEDKTKIRRSPSKPLPEVTDEYKNDVKNRSVYIKGFPTDATLDDIKEWLEDKGQVLNIQMRRTLHKAFKGSIFVVFDSIESAKKFVETPGQKYKETDLLILFKDDYFAKKNEERKQNKVEAKLRAKQEQEAKQKLEEDAEMKSLEEKIGCLLKFSGDLDDQTCREDLHILFSNHGEIKWIDFVRGAKEGIILFKEKAKEALGKAKDANNGNLQLRNKEVTWEVLEGEVEKEALKKIIEDQQESLNKWKSKGRRFKGKGKGNKAAQPGSGKGKVQFQGKKTKFASDDEHDEHDENGATGPVKRAREETDKEEPASKQQKTENGAGDQ
formation of multinucleated syncytia (osteoclast fusion) [1]: promotes osteoclast fusion | pelleting with liposomes ([2]; PS containing liposomes, La alone): pelleted poorly | pelleting with liposomes ([2]; PS containing liposomes, La with Anx A5, Ca^2+): pelleted with liposomes | pelleting with liposomes ([2]; liposomes lacking PS): neither La nor Anx A5 pelleted | synchronized osteoclast membrane fusion (human osteoclasts): dramatically promoted | HA0-cell bound RBCs that exchanged lipid (hemifusion) or cytoplasmic (fusion pore) probes [3]: none of 872 | lower activity than fusion mediated by activated HA [3]: at least 100 fold | probability of La mediated fibroblast-RBC fusion ([3]; upper limit by Wilson's method, 40 nM): ≤ 0.0044 per cell contact

— patent US20240041978A1, “LA PROTEIN AS A NOVEL REGULATOR OF OSTEOCLASTOGENESIS” (The U.S.A., as Represented by the Secretary, Department of …, priority 2021, published 2024)
